Substitutions are numbered along the chain they refer to. Names may count otherwise.

To fix the notation:
B1: GLS3000 H34K one-arm antibody (antibody, human IgG1, kappa, L234A L235A, N297A, name in Kabat numbering)
heavy: QVQLVESGGGVVQPGRSLRLSCAASGFTFSNAWMHWVRQAPGKGLEWVAQIKAKSNNYATYYAESVKGRFTISRDDSKNSLYLQMNSLKTEDTAVYYCRYVHYGAYYGVDAWGQGTTVTVSSASTKGPSVFPLAPSSKSTSGGTAALGCLVKDYFPEPVTVSWNSGALTSGVHTFPAVLQSSGLYSLSSVVTVPSSSLGTQTYICNVNHKPSNTKVDKKVEPKSCDKTHTCPPCPAPEAAGGPSVFLFPPKPKDTLMISRTPEVTCVVVDVSHEDPEVKFNWYVDGVEVHNAKTKPREEQYASTYRVVSVLTVLHQDWLNGKEYKCKVSNKALPAPIEKTISKAKGQPREPQVYTLPPSRCELTKNQVSLSCAVKGFYPSDIAVEWESNGQPENNYKTTPPVLDSDGSFFLVSKLTVDKSRWQQGNVFSCSVMHEALHNHYTQKSLSLSPDYKDDDDK
chain: EPKSSDKTHTCPPCPAPELLGGPSVFLFPPKPKDTLMISRTPEVTCVVVDVSHEDPEVKFNWYVDGVEVHNAKTKPREEQYNSTYRVVSVLTVLHQDWLNGKEYKCKVSNKALPAPIEKTISKAKGQPREPQVCTLPPSRDELTKNQVSLWCLVKGFYPSDIAVEWESNGQPENNYKTTPPVLDSDGSFFLYSKLTVDKSRWQQGNVFSCSVMHEALHNRYTQKSLSLSP
light: DIVMTQSPLSLPVTPGEPASISCRSSQSLVHSNRNTYLKWYQQKPGQAPRLLIYKVSNRFSGVPDRFSGSGSGTDFTLKISRVEAEDVGVYYCGQGTQVPYTFGQGTKLEIKRTVAAPSVFIFPPSDEQLKSGTASVVCLLNNFYPREAKVQWKVDNALQSGNSQESVTEQDSKDSTYSLSSTLTLSKADYEKHKVYACEVTHQGLSSPVTKSFNRGEC
B2: GLS3000 H34Y one-arm antibody (antibody, human IgG1, kappa, L234A L235A, N297A, name in Kabat numbering)
heavy: B1 heavy
chain: B1 chain
light: B1 light with K39Y
B3: GLS3000 L27bP one-arm antibody (antibody, human IgG1, kappa, L234A L235A, N297A, name in Kabat numbering)
heavy: B1 heavy
chain: B1 chain
light: B1 light with L29P, K39H
B4: GLS3000 H34Q one-arm antibody (antibody, human IgG1, kappa, L234A L235A, N297A, name in Kabat numbering)
heavy: B1 heavy
chain: B1 chain
light: B1 light with K39Q
B5: GLS3000 L27bI one-arm antibody (antibody, human IgG1, kappa, L234A L235A, N297A, name in Kabat numbering)
heavy: B1 heavy
chain: B1 chain
light: B1 light with L29I, K39H
B6: GLS3000 H34L one-arm antibody (antibody, human IgG1, kappa, L234A L235A, N297A, name in Kabat numbering)
heavy: B1 heavy
chain: B1 chain
light: B1 light with K39L
B7: GLS3000 H34N one-arm antibody (antibody, human IgG1, kappa, L234A L235A, N297A, name in Kabat numbering)
heavy: B1 heavy
chain: B1 chain
light: B1 light with K39N
B8: GLS3000 H34W one-arm antibody (antibody, human IgG1, kappa, L234A L235A, N297A, name in Kabat numbering)
heavy: B1 heavy
chain: B1 chain
light: B1 light with K39W
B9: GLS3000 K107E one-arm antibody (antibody, human IgG1, kappa, L234A L235A, N297A, name in Kabat numbering)
heavy: B1 heavy
chain: B1 chain
light: B1 light with K39H, K112E
B10: GLS3000 K50S one-arm antibody (antibody, human IgG1, kappa, L234A L235A, N297A, name in Kabat numbering)
heavy: B1 heavy
chain: B1 chain
light: B1 light with K39H, K55S
B11: GLS3000 K50D one-arm antibody (antibody, human IgG1, kappa, L234A L235A, N297A, name in Kabat numbering)
heavy: B1 heavy
chain: B1 chain
light: B1 light with K39H, K55D
B12: GLS3000 K50G one-arm antibody (antibody, human IgG1, kappa, L234A L235A, N297A, name in Kabat numbering)
heavy: B1 heavy
chain: B1 chain
light: B1 light with K39H, K55G
B13: GLS3000 K50A one-arm antibody (antibody, human IgG1, kappa, L234A L235A, N297A, name in Kabat numbering)
heavy: B1 heavy
chain: B1 chain
light: B1 light with K39H, K55A
B14: GLS3000 L27bD one-arm antibody (antibody, human IgG1, kappa, L234A L235A, N297A, name in Kabat numbering)
heavy: B1 heavy
chain: B1 chain
light: B1 light with L29D, K39H
B15: GLS3000 K50E one-arm antibody (antibody, human IgG1, kappa, L234A L235A, N297A, name in Kabat numbering)
heavy: B1 heavy
chain: B1 chain
light: B1 light with K39H, K55E
B16: GLS3000 L27bF one-arm antibody (antibody, human IgG1, kappa, L234A L235A, N297A, name in Kabat numbering)
heavy: B1 heavy
chain: B1 chain
light: B1 light with L29F, K39H
B17: GLS3000 H34V one-arm antibody (antibody, human IgG1, kappa, L234A L235A, N297A, name in Kabat numbering)
heavy: B1 heavy
chain: B1 chain
light: B1 light with K39V
B18: GLS3000 K50T one-arm antibody (antibody, human IgG1, kappa, L234A L235A, N297A, name in Kabat numbering)
heavy: B1 heavy
chain: B1 chain
light: B1 light with K39H, K55T
B19: GLS3000 K50Y one-arm antibody (antibody, human IgG1, kappa, L234A L235A, N297A, name in Kabat numbering)
heavy: B1 heavy
chain: B1 chain
light: B1 light with K39H, K55Y
B20: GLS3000 L27bM one-arm antibody (antibody, human IgG1, kappa, L234A L235A, N297A, name in Kabat numbering)
heavy: B1 heavy
chain: B1 chain
light: B1 light with L29M, K39H
B21: GLS3000 L27bS one-arm antibody (antibody, human IgG1, kappa, L234A L235A, N297A, name in Kabat numbering)
heavy: B1 heavy
chain: B1 chain
light: B1 light with L29S, K39H
B22: GLS3000 H34R one-arm antibody (antibody, human IgG1, kappa, L234A L235A, N297A, name in Kabat numbering)
heavy: B1 heavy
chain: B1 chain
light: B1 light with K39R
B23: GLS3000 H34P one-arm antibody (antibody, human IgG1, kappa, L234A L235A, N297A, name in Kabat numbering)
heavy: B1 heavy
chain: B1 chain
light: B1 light with K39P
B24: GLS3000 K50Q one-arm antibody (antibody, human IgG1, kappa, L234A L235A, N297A, name in Kabat numbering)
heavy: B1 heavy
chain: B1 chain
light: B1 light with K39H, K55Q
B25: GLS3000 K50L one-arm antibody (antibody, human IgG1, kappa, L234A L235A, N297A, name in Kabat numbering)
heavy: B1 heavy
chain: B1 chain
light: B1 light with K39H, K55L
B26: GLS3000 K50R one-arm antibody (antibody, human IgG1, kappa, L234A L235A, N297A, name in Kabat numbering)
heavy: B1 heavy
chain: B1 chain
light: B1 light with K39H, K55R
B27: GLS3000 H34S one-arm antibody (antibody, human IgG1, kappa, L234A L235A, N297A, name in Kabat numbering)
heavy: B1 heavy
chain: B1 chain
light: B1 light with K39S
B28: GLS3000 K74T one-arm antibody (antibody, human IgG1, kappa, L234A L235A, N297A, name in Kabat numbering)
heavy: B1 heavy
chain: B1 chain
light: B1 light with K39H, K79T
B29: GLS3000 H34T one-arm antibody (antibody, human IgG1, kappa, L234A L235A, N297A, name in Kabat numbering)
heavy: B1 heavy
chain: B1 chain
light: B1 light with K39T
B30: GLS3000 L27bE one-arm antibody (antibody, human IgG1, kappa, L234A L235A, N297A, name in Kabat numbering)
heavy: B1 heavy
chain: B1 chain
light: B1 light with L29E, K39H
B31: GLS3000 K50P one-arm antibody (antibody, human IgG1, kappa, L234A L235A, N297A, name in Kabat numbering)
heavy: B1 heavy
chain: B1 chain
light: B1 light with K39H, K55P
B32: GLS3000 H34M one-arm antibody (antibody, human IgG1, kappa, L234A L235A, N297A, name in Kabat numbering)
heavy: B1 heavy
chain: B1 chain
light: B1 light with K39M

For the experiment, the target named is T1, CD3ε homodimer protein (human, UniProt P07766 23-126, limits assumed).
T1 construct: also called CD3 (CD3ε)
T1 sequence (P07766 23-126 limits assumed): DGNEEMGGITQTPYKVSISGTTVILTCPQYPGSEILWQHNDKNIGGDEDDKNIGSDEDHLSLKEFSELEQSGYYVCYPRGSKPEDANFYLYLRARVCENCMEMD
As to the kind of experiment: SPR Biacore T200, CD3ε homodimer on chip.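 Further: Light-chain single-residue variant antibodies injected over amine-coupled CD3ε homodimer on a CM4 chip at 25 °C, bound amount divided by that of the GLS3000-containing antibody.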 In general terms: In SPR one partner is held on a chip, and binding of the other changes the refractive index at the surface.
On to B1, for which the “ratio of amount bound vs unaltered GLS3000” value (from here on “ratio of amount bound”) is 2.17.
As for B2, the “ratio of amount bound” value turned out to be 0.59.
In the case of B3, the “ratio of amount bound” value worked out at 0.91.
In the case of B4 it was 0.25; in that of B5, 1.19.
In the case of B6 it was 0.59.
With B7, the “ratio of amount bound” value stood at 0.65.
As for B8, the figure is 0.24; as for B9, 0.94.
As for B10, the figure is 0.23; as for B11, 0.22; as for B12, 0.16.
In the case of B13 it was 0.23.
Regarding B14, the “ratio of amount bound” value was 0.17.
Take B15: the “ratio of amount bound” value is 0.24.
B16: the “ratio of amount bound” value turned out to be 0.42.
In the case of B17 it was 0.85; in that of B18, 0.19; in that of B19, 0.24.
As to B20, the “ratio of amount bound” value was 0.71.
As for B21, the figure is 0.71; as for B22, 0.2.
For the molecule B23, the “ratio of amount bound” value was determined as 0.34.
As for B24, the “ratio of amount bound” value was 0.18.
In the case of B25 it was 0.24; in that of B26, 0.5; in that of B27, 0.78.
In the case of B28, the “ratio of amount bound” value stood at 0.84.
For the molecule B29, the “ratio of amount bound” value came to 0.89.
For B30, the “ratio of amount bound” value was determined as 0.17.
As for B31, the figure is 0.3; as for B32, 0.35.
